Molecular target: the protein biologic (purified DNASE1-Fc enzyme biologic analysed by size-exclusion chromatography with light scattering) (not stated (murine and human isoforms were made)) (UniProt P49183)
Assay: SEC-MALS; size-exclusion chromatography with light scattering; two separate concentrations of sample loading; single peak; hydrodynamic radius 5.3 nm

stoichiometry N: 2
Substance: the protein biologic (purified DNASE1-Fc enzyme biologic analysed by size-exclusion chromatography with light scattering) (from UniProt P49183 23-284) (Fc fusion)
